Numbered stars: 1 amine (or outer) side, 2 acyl side, 3 side chain; on linkers, the order of the positions; unused ones are H or OH. Bridge positions count the residues as written; N and C are the ends. Square brackets hold non-standard residues; d marks the D form. * marks the point of attachment. Ala(piperidin-4-yl) = O=C([C@H](CC1CCN([*:3])CC1)N[*:1])[*:2]; DOTA = O=C(O)CN1CCN(CC(=O)O)CCN(CC(=O)*)CCN(CC(=O)O)CC1; Phe(4-CF3) = N[C@@H](Cc1ccc(C(F)(F)F)cc1)C(=O)O; Ala(morpholin-4-yl) = N[C@@H](CN1CCOCC1)C(=O)O; Trp(5-F) = N[C@@H](Cc1c[nH]c2ccc(F)cc12)C(=O)O; Trp(7-aza) = N[C@@H](Cc1c[nH]c2ncccc12)C(=O)O; Pro(trans-4-F) = O=C(O)[C@@H]1C[C@@H](F)CN1; 2Nal = N[C@@H](Cc1ccc2ccccc2c1)C(=O)O; Nva(3-Et) = CCC(CC)[C@H](N)C(=O)O
What was measured:
[1] = target: T1, DLL3 on SHP-77 cells (human, UniProt Q9NYJ7 27-618); assay: 177Lu-peptide bound to SHP-77 cells, gamma counting; letter grade, key in paragraph 629
T1 construct: SHP-77 cells are human-derived, non-engineered SCLC cells
T1 sequence: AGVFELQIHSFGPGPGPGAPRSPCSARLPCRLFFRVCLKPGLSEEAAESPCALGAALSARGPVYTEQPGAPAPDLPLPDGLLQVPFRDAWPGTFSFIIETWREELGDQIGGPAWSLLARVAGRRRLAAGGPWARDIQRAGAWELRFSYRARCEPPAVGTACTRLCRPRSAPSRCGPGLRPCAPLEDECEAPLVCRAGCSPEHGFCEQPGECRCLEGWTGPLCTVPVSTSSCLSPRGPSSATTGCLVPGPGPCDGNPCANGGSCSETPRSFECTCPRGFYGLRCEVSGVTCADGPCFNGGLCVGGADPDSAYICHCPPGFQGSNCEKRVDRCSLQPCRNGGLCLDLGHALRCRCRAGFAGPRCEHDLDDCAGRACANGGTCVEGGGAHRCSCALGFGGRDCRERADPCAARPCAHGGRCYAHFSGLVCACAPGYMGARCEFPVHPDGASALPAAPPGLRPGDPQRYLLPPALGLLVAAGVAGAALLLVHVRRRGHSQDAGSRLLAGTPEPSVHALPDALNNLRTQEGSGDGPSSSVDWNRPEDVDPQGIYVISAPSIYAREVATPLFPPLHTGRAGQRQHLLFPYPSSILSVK
Experimental: (§1) The study was conducted using SHP-77, CT26.WT, and CT26.DLL3 cells (Table 7) Adherent cell studies: The cells were cultured in appropriate culture media (20 mL) in tissue culture treated T150 flasks at 37° C. and 5% CO2. Adherent cells were detached (60-70% confluent) using 5 mL Versene at 37° C. for 3 minutes. After confirming the viability using countess and count of detached cells using Trypan blue, the cells were centrifuged at 4° C. for 5 minutes (1,000 rpm). The cell pellet obtained was washed once with PBS and resuspended in 1% PBSA to obtain the desired cell concentration (5-25 million cells/mL).
(§2) Total uptake: Cells were incubated with 300 μL (0.8 μCi) of the incubation buffer (containing radiolabeled peptide [¹⁷⁷Lu] Lu-test peptide) for 1 hour at 37° C. (Table 8). Post incubation, the cells were pelleted and washed 2 times using cold PBS+1% BSA. The supernatant and washes were combined and counted together as “unbound fraction” in a gamma counter. The cells were then resuspended in 300 μL of 1% PBS+1% BSA and counted in the gamma counter as “bound fraction”.

[2] = target: T2, DLL3 on CT26.DLL3 cells (Homo sapiens (Human), UniProt Q9NYJ7 27-618); assay: 177Lu-peptide bound to CT26.DLL3 cells, gamma counting; letter grade, key in paragraph 629
T2 construct: CT26.DLL3 are engineered cells to express DLL3
T2 sequence: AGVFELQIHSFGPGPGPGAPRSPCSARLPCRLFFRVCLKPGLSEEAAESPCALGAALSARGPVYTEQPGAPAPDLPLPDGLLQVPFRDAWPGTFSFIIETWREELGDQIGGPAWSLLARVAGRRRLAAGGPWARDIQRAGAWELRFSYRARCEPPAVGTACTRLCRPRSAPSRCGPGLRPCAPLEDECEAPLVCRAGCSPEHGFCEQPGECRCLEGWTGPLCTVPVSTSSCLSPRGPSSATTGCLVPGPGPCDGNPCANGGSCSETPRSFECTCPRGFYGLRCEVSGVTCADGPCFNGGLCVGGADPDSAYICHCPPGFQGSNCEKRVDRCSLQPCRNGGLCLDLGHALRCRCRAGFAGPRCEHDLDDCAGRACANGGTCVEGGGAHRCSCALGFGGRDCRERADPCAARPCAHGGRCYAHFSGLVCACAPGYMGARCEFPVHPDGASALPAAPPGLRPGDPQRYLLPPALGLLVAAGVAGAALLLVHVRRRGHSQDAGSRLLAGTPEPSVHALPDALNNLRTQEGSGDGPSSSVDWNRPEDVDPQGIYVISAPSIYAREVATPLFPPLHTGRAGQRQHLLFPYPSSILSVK
Experimental: as §1, §2

| Binder | % Binding [1] [%] | % Binding [2] [%] |
| --- | --- | --- |
| Ac-WTICNN[2Nal]HDCWP[dK](DOTA)-NH2 (disulfide 4-10; also: 177Lu in the DOTA chelator, also called [177Lu]Lu-test peptide) [[177Lu]Lu-labelled Cpd No. 75] | ≤ 25 | – |
| Ac-WTICNN[2Nal]KDCWP[dK](DOTA)-NH2 (disulfide 4-10; also: 177Lu in the DOTA chelator, also called [177Lu]Lu-test peptide) [[177Lu]Lu-labelled Cpd No. 237] | – | ≤ 25 |
| Ac-WTICNN[2Nal]HNCWP[dK](DOTA)-NH2 (disulfide 4-10; also: 177Lu chelated in DOTA, also called [177Lu]Lu-test peptide) [[177Lu]Lu-labelled Cpd No. 211] | – | ≤ 25 |
| Ac-WTICN[Ala(piperidin-4-yl)][2Nal]HDCWP[dK](DOTA)-NH2 (disulfide 4-10; also: 177Lu in the DOTA chelator, also called [177Lu]Lu-test peptide) [[177Lu]Lu-labelled Cpd No. 267] | – | ≤ 25 |
| Ac-[Trp(5-F)]T[Nva(3-Et)]CNN[Phe(4-CF3)]HDC[Trp(7-aza)][Pro(trans-4-F)][dK](DOTA)-NH2 (disulfide 4-10; also: 177Lu complexed in the DOTA chelator) [[177Lu]Lu-labelled Cpd No. 146] | < 25 | – |
| Ac-WTIC[Ala(morpholin-4-yl)]N[2Nal]HDCWP[dK](DOTA)-NH2 (disulfide 4-10; also: 177Lu in the DOTA chelator, also called [177Lu]Lu-test peptide) [[177Lu]Lu-labelled Cpd No. 261] | – | ≤ 25 |
| Ac-WTICNN[2Nal]HDCWPK(DOTA)-NH2 (disulfide 4-10; also: 177Lu chelated in DOTA, also called [177Lu]Lu-test peptide) [[177Lu]Lu-labelled Cpd No. 166] | ≤ 25 | – |
| Ac-WTICNNWHDCWP[dK](DOTA)-NH2 (disulfide 4-10; also: 177Lu chelated in DOTA, also called [177Lu]Lu-test peptide) [[177Lu]Lu-labelled Cpd No. 23] | ≤ 25 | ≤ 25 |

— patent publication US20250011368A1, “DLL3 TARGETING PEPTIDES AND CONSTRUCTS THEREOF” (MARIANA ONCOLOGY INC., priority 2023, published 2025)
